Laboratory results as given in the supplement of paper PMC10567573.

B1: FAM189A2 (parent)
chain: NLAGFILGCQGAQFVSSVPRCDLV

Variants of: B1
Experiment: protein stability index of a GFP-peptide fusion (GPS, HEK-293T) (PSI 1-6); higher = more stable
Conditions: c terminus: a fixed tail appended
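Further: lentivirally expressed fusions sorted by FACS into six bins by GFP to DsRed ratio, PSI derived from sequencing read proportions per bin multiplied by bin number.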

Protein stability index, by site and new letter:
Q10: L 1.53 | T 3.84 | I 2.87 | H 2.76 | R 2.51 | P 4.29 | C 1.49 | G 2.63 | M 3.99 | D 3.6
S16: D 1.04 | L 2.34 | E 2.21 | T 2.23 | W 3.86 | K 3.56 | C 2.58 | Y 4.96 | G 3.41 | N 1.72 | R 2.89 | H 1.8 | I 3.41
V18: N 2.59 | E 1.05 | F 2.54 | P 2.8 | G 1.61 | Y 2.68 | I 3.42 | L 2.27 | T 1.68 | C 2.83 | M 3.72 | K 1.99 | S 2.4 | D 2.55 | R 1.78
R20: F 2.19 | H 3.48 | I 2.15 | K 2.1 | L 1.87 | Q 1.45 | D 3.39 | E 1.96 | M 2.91 | P 2.2 | G 3.08 | Y 1.75
A12: D 4.07 | C 2.54 | F 2.91 | E 3.98 | R 3.12 | H 1.03 | P 2.99 | W 2.15 | L 2.95 | K 1.89
L7: D 2.19 | C 2.6 | P 1.43 | E 1.77 | T 2.58 | G 1.82 | Q 2.1 | N 2.75 | H 1.73 | R 1.63 | M 2 | F 2.51 | S 2.02 | K 1.69
C9: D 1.38 | A 2.62 | L 1.76 | E 2.54 | S 2.71 | G 2.35 | F 2.36 | H 3.12 | K 1.74 | V 2.04 | R 1.23 | P 1.11
P19: F 3.04 | T 3.3 | C 3.7 | Q 2.65 | N 3.15 | M 1.45 | H 3.01 | A 3.01 | R 2.56
G11: Y 3.45 | D 2.76 | P 3.59 | N 3.08 | R 5.06 | L 3.39 | W 3.48 | I 3.71
Q13: Y 3.26 | D 2.27 | F 3 | M 2.01 | A 4.08 | C 2.76 | P 2.31 | T 3.16 | V 2.53 | N 2.93
C21: N 2.79 | R 1.64 | S 1.68 | F 2.92 | M 2.81 | Q 2.07 | A 2.57 | D 2.33 | H 2.54 | K 3.12
V15: C 2.72 | Y 2.46 | Q 3.5 | E 1.94 | R 1.75 | D 1.55 | K 2.19 | L 3.14 | H 3.13
G8: K 3.72 | Y 3.33 | D 2.19 | I 3.23 | L 2.81 | R 2.34 | F 3.47 | P 2.03 | W 2.45 | T 2.17
S17: E 2.31 | R 2.1 | M 1.47 | D 1.72 | T 1.97 | Y 3.35 | H 3.37 | I 1.39 | W 3.85 | K 2.33 | Q 2.31
F14: V 2.29 | R 1.27 | Q 1.92 | K 1.16 | P 2.4 | M 2.71 | A 1.29 | N 1.72 | E 1.34 | H 1.87 | Y 2.9 | W 2.78 | T 1.27
I6: Y 2.26
